What was measured:
[1] = target: T1, RAS G12V mutant (KRAS G12V) peptide on HLA-DPB1*03:01 (human); assay: Jurkat-NFAT-Luc; B13 LCL + G12V peptide, 10 µg/ml, 10-fold dilutions, 5 conc.; Emax relative to WT 125%; full-length, on cells
T1 peptide: TEYKLVVVGAVGV
Experimental: (§1) In the above table, those with a higher ratio of TCR Mut RLU/WT RLU were underlined, which were preferred TCR mutants. The Emax and EC50 (Functional Avidity) of these TCR mutants in recognition of the KRAS-G12V antigen peptide were further determined. B13 LCL cells were loaded with different concentrations of G12V antigen peptide (10 μg/ml, 10-fold dilution, 5 concentrations), and co-incubated with Jurkat-NFAT-Luc cells expressing the TCR mutants for 16-24 hours, the fluorescence signal expression was detected by adding ONE Glo Luciferase, and the results were shown in FIG. 8 and the table below.

[2] = target: T1, RAS G12V mutant (KRAS G12V) peptide on …; assay: Jurkat-NFAT-Luc; SW620-DPB + G12V peptide, 10 µg/ml, 10-fold dilutions, 5 conc.; Emax relative to WT 131%; full-length, on cells
Experimental: (§2) In the above table, those with TCR Mut RLU/WT RLU ratio ≥80% were underlined, which were the preferred TCR mutants. The Emax and EC50 (Functional Avidity) of the TCR mutants to recognize the KRAS-G12V antigen peptide were further determined. SW620-DPB cells (SW620 expressing HLA-DPB1*03:01) were loaded with different concentrations of G12V antigen peptide (10 μg/ml, 10-fold dilution, 5 concentrations), and co-incubated with Jurkat-NFAT-Luc cells expressing the TCR mutants for 16-24 hours, and the fluorescence signal expression was detected by adding ONE Glo Luciferase.

[3] = target: T1, RAS G12V mutant (KRAS G12V) peptide on …; assay: Jurkat-NFAT-Luc + B13 LCL loaded with T15; vs wild-type B13.14.1; mTCRβ 89.00%; full-length, on cells
Experimental: (§3) The TCR mutant (MHC-II binding region) lentiviral vector was transduced into the Jurkat-NFAT-Luc cell line, and B13 LCL cells loaded with KRAS-G12V antigen (RAS G12V-T15 peptide, SEQ ID NO: 5) were used as the antigen-presenting cells. 2×10⁴ TCR-T and 2×10⁴ antigen-loaded B13 LCL cells were co-cultured for 16-24 hours, the fluorescence signal expression was detected by adding ONE Glo Luciferase, and TCR Mut RLU/WT RLU (ratio of RLU signal value of TCR mutant to RLU signal value of wild-type B13.14.1TCR) was calculated.

[4] = target: T1, RAS G12V mutant (KRAS G12V) peptide on …; assay: Jurkat-NFAT-Luc; SW620-DPB + G12V peptide, 10 µg/ml, 10-fold dilutions, 5 conc.; Emax relative to WT 78%; full-length, on cells
Experimental: as §2

[5] = target: T1, RAS G12V mutant (KRAS G12V) peptide on …; assay: Jurkat-NFAT-Luc; B13 LCL + G12V peptide, 10 µg/ml, 10-fold dilutions, 5 conc.; Emax relative to WT 256%; full-length, on cells
Experimental: as §1

[6] = target: T1, RAS G12V mutant (KRAS G12V) peptide on …; assay: Jurkat-NFAT-Luc; SW620-DPB + G12V peptide, 10 µg/ml, 10-fold dilutions, 5 conc.; Emax relative to WT 180%; full-length, on cells
Experimental: as §2

[7] = target: T1, RAS G12V mutant (KRAS G12V) peptide on …; assay: Jurkat-NFAT-Luc; SW620-DPB + G12V peptide, 10 µg/ml, 10-fold dilutions, 5 conc.; Emax relative to WT 111%; full-length, on cells
Experimental: as §2

[8] = target: T1, RAS G12V mutant (KRAS G12V) peptide on …; assay: Jurkat-NFAT-Luc + B13 LCL loaded with T15; vs wild-type B13.14.1; mTCRβ 95.20%; full-length, on cells
Experimental: as §3

[9] = target: T1, RAS G12V mutant (KRAS G12V) peptide on …; assay: Jurkat-NFAT-Luc; SW620-DPB + G12V peptide, 10 µg/ml, 10-fold dilutions, 5 conc.; Emax relative to WT 134%; full-length, on cells
Experimental: as §2

[10] = target: T1, RAS G12V mutant (KRAS G12V) peptide on …; assay: Jurkat-NFAT-Luc; SW620-DPB + G12V peptide, 10 µg/ml, 10-fold dilutions, 5 conc.; Emax relative to WT 106%; full-length, on cells
Experimental: as §2

[11] = target: T1, RAS G12V mutant (KRAS G12V) peptide on …; assay: Jurkat-NFAT-Luc; B13 LCL + G12V peptide, 10 µg/ml, 10-fold dilutions, 5 conc.; Emax relative to WT 192%; full-length, on cells
Experimental: as §1

[12] = target: T1, RAS G12V mutant (KRAS G12V) peptide on …; assay: Jurkat-NFAT-Luc; SW620-DPB + G12V peptide, 10 µg/ml, 10-fold dilutions, 5 conc.; Emax relative to WT 97%; full-length, on cells
Experimental: as §2

[13] = target: T1, RAS G12V mutant (KRAS G12V) peptide on …; assay: Jurkat-NFAT-Luc + B13 LCL loaded with T15; vs wild-type B13.14.1; mTCRβ 94.90%; full-length, on cells
Experimental: as §3

[14] = target: T1, RAS G12V mutant (KRAS G12V) peptide on …; assay: Jurkat-NFAT-Luc; SW620-DPB + G12V peptide, 10 µg/ml, 10-fold dilutions, 5 conc.; Emax relative to WT 82%; full-length, on cells
Experimental: as §2

[15] = target: T1, RAS G12V mutant (KRAS G12V) peptide on …; assay: Jurkat-NFAT-Luc; B13 LCL + G12V peptide, 10 µg/ml, 10-fold dilutions, 5 conc.; Emax relative to WT 94%; full-length, on cells
Experimental: as §1

B1: B13.14.1 TCR mutant α98G-N (TCR, V domains shown)
Valpha: AQSVAQPEDQVNVAEGNPLTVKCTYSVSGNPYLFWYVQYPNRGLQFLLKYITGDNLVKGSYGFEAEFNKSQTSFHLKKPSALVSDSALYFCAVRDGRNGGNKLTFGTGTQLKVEL
Vbeta: DGGITQSPKYLFRKEGQNVTLSCEQNLNHDAMYWYRQDPGQGLRLIYYSQIVNDFQKGDIAEGYSVSREKKESFPLTVTSAQKNPTAFYLCASSPGQRDNSPLHFGNGTRLTVT
EC50 of peptide [1]: 0.255 µg/mL

B2: B13.14.1 TCR mutant α52T-A (TCR, V domains shown)
Valpha: AQSVAQPEDQVNVAEGNPLTVKCTYSVSGNPYLFWYVQYPNRGLQFLLKYIAGDNLVKGSYGFEAEFNKSQTSFHLKKPSALVSDSALYFCAVRDGRGGGNKLTFGTGTQLKVEL
Vbeta: DGGITQSPKYLFRKEGQNVTLSCEQNLNHDAMYWYRQDPGQGLRLIYYSQIVNDFQKGDIAEGYSVSREKKESFPLTVTSAQKNPTAFYLCASSPGQRDNSPLHFGNGTRLTVT
EC50 of peptide [2]: 1.56 µg/mL

B3: B13.14.1 TCR mutant β50Q-T (TCR, V domains shown)
Valpha: AQSVAQPEDQVNVAEGNPLTVKCTYSVSGNPYLFWYVQYPNRGLQFLLKYITGDNLVKGSYGFEAEFNKSQTSFHLKKPSALVSDSALYFCAVRDGRGGGNKLTFGTGTQLKVEL
Vbeta: DGGITQSPKYLFRKEGQNVTLSCEQNLNHDAMYWYRQDPGQGLRLIYYSTIVNDFQKGDIAEGYSVSREKKESFPLTVTSAQKNPTAFYLCASSPGQRDNSPLHFGNGTRLTVT
TCR Mut RLU/WT RLU [3]: 101% | EC50 of peptide [4]: 1.34 µg/mL

B4: B13.14.1 TCR mutant β95P-A (TCR, V domains shown)
Valpha: AQSVAQPEDQVNVAEGNPLTVKCTYSVSGNPYLFWYVQYPNRGLQFLLKYITGDNLVKGSYGFEAEFNKSQTSFHLKKPSALVSDSALYFCAVRDGRGGGNKLTFGTGTQLKVEL
Vbeta: DGGITQSPKYLFRKEGQNVTLSCEQNLNHDAMYWYRQDPGQGLRLIYYSQIVNDFQKGDIAEGYSVSREKKESFPLTVTSAQKNPTAFYLCASSAGQRDNSPLHFGNGTRLTVT
EC50 of peptide [5]: 0.204 µg/mL

B5: B13.14.1 TCR mutant β48Y-F (TCR, V domains shown)
Valpha: AQSVAQPEDQVNVAEGNPLTVKCTYSVSGNPYLFWYVQYPNRGLQFLLKYITGDNLVKGSYGFEAEFNKSQTSFHLKKPSALVSDSALYFCAVRDGRGGGNKLTFGTGTQLKVEL
Vbeta: DGGITQSPKYLFRKEGQNVTLSCEQNLNHDAMYWYRQDPGQGLRLIYFSQIVNDFQKGDIAEGYSVSREKKESFPLTVTSAQKNPTAFYLCASSPGQRDNSPLHFGNGTRLTVT
EC50 of peptide [6]: 9.51 µg/mL

B6: B13.14.1 TCR mutant α52T-H (TCR, V domains shown)
Valpha: AQSVAQPEDQVNVAEGNPLTVKCTYSVSGNPYLFWYVQYPNRGLQFLLKYIHGDNLVKGSYGFEAEFNKSQTSFHLKKPSALVSDSALYFCAVRDGRGGGNKLTFGTGTQLKVEL
Vbeta: DGGITQSPKYLFRKEGQNVTLSCEQNLNHDAMYWYRQDPGQGLRLIYYSQIVNDFQKGDIAEGYSVSREKKESFPLTVTSAQKNPTAFYLCASSPGQRDNSPLHFGNGTRLTVT
EC50 of peptide [7]: 1.03 µg/mL

B7: B13.14.1 TCR mutant α51I-W (TCR, V domains shown)
Valpha: AQSVAQPEDQVNVAEGNPLTVKCTYSVSGNPYLFWYVQYPNRGLQFLLKYWTGDNLVKGSYGFEAEFNKSQTSFHLKKPSALVSDSALYFCAVRDGRGGGNKLTFGTGTQLKVEL
Vbeta: DGGITQSPKYLFRKEGQNVTLSCEQNLNHDAMYWYRQDPGQGLRLIYYSQIVNDFQKGDIAEGYSVSREKKESFPLTVTSAQKNPTAFYLCASSPGQRDNSPLHFGNGTRLTVT
TCR Mut RLU/WT RLU [8]: 129% | EC50 of peptide [9]: 1.24 µg/mL

B8: B13.14.1 TCR mutant α49K-S (TCR, V domains shown)
Valpha: AQSVAQPEDQVNVAEGNPLTVKCTYSVSGNPYLFWYVQYPNRGLQFLLSYITGDNLVKGSYGFEAEFNKSQTSFHLKKPSALVSDSALYFCAVRDGRGGGNKLTFGTGTQLKVEL
Vbeta: DGGITQSPKYLFRKEGQNVTLSCEQNLNHDAMYWYRQDPGQGLRLIYYSQIVNDFQKGDIAEGYSVSREKKESFPLTVTSAQKNPTAFYLCASSPGQRDNSPLHFGNGTRLTVT
EC50 of peptide [10]: 1.21 µg/mL

B9: B13.14.1 TCR mutant β97Q-S (TCR, V domains shown)
Valpha: AQSVAQPEDQVNVAEGNPLTVKCTYSVSGNPYLFWYVQYPNRGLQFLLKYITGDNLVKGSYGFEAEFNKSQTSFHLKKPSALVSDSALYFCAVRDGRGGGNKLTFGTGTQLKVEL
Vbeta: DGGITQSPKYLFRKEGQNVTLSCEQNLNHDAMYWYRQDPGQGLRLIYYSQIVNDFQKGDIAEGYSVSREKKESFPLTVTSAQKNPTAFYLCASSPGSRDNSPLHFGNGTRLTVT
EC50 of peptide [11]: 0.123 µg/mL

B10: B13.14.1 TCR mutant β50Q-N (TCR, V domains shown)
Valpha: AQSVAQPEDQVNVAEGNPLTVKCTYSVSGNPYLFWYVQYPNRGLQFLLKYITGDNLVKGSYGFEAEFNKSQTSFHLKKPSALVSDSALYFCAVRDGRGGGNKLTFGTGTQLKVEL
Vbeta: DGGITQSPKYLFRKEGQNVTLSCEQNLNHDAMYWYRQDPGQGLRLIYYSNIVNDFQKGDIAEGYSVSREKKESFPLTVTSAQKNPTAFYLCASSPGQRDNSPLHFGNGTRLTVT
EC50 of peptide [12]: 1.19 µg/mL

B11: B13.14.1 TCR mutant α49K-Y (TCR, V domains shown)
Valpha: AQSVAQPEDQVNVAEGNPLTVKCTYSVSGNPYLFWYVQYPNRGLQFLLYYITGDNLVKGSYGFEAEFNKSQTSFHLKKPSALVSDSALYFCAVRDGRGGGNKLTFGTGTQLKVEL
Vbeta: DGGITQSPKYLFRKEGQNVTLSCEQNLNHDAMYWYRQDPGQGLRLIYYSQIVNDFQKGDIAEGYSVSREKKESFPLTVTSAQKNPTAFYLCASSPGQRDNSPLHFGNGTRLTVT
TCR Mut RLU/WT RLU [13]: 119% | EC50 of peptide [14]: 0.96 µg/mL

B12: B13.14.1 TCR mutant β95P-T (TCR, V domains shown)
Valpha: AQSVAQPEDQVNVAEGNPLTVKCTYSVSGNPYLFWYVQYPNRGLQFLLKYITGDNLVKGSYGFEAEFNKSQTSFHLKKPSALVSDSALYFCAVRDGRGGGNKLTFGTGTQLKVEL
Vbeta: DGGITQSPKYLFRKEGQNVTLSCEQNLNHDAMYWYRQDPGQGLRLIYYSQIVNDFQKGDIAEGYSVSREKKESFPLTVTSAQKNPTAFYLCASSTGQRDNSPLHFGNGTRLTVT
EC50 of peptide [15]: 0.325 µg/mL

Reference: US20240000834A1, “RAS MUTANT EPITOPE PEPTIDE AND T CELL RECEPTOR RECOGNIZING RAS MUTANT” (SHANGHAI GENBASE BIOTECHNOLOGY CO., LTD., priority 2020, published 2024)
